Data published in patent publication US6869778.

T1: lys-plasminogen, P00747
T1 chain: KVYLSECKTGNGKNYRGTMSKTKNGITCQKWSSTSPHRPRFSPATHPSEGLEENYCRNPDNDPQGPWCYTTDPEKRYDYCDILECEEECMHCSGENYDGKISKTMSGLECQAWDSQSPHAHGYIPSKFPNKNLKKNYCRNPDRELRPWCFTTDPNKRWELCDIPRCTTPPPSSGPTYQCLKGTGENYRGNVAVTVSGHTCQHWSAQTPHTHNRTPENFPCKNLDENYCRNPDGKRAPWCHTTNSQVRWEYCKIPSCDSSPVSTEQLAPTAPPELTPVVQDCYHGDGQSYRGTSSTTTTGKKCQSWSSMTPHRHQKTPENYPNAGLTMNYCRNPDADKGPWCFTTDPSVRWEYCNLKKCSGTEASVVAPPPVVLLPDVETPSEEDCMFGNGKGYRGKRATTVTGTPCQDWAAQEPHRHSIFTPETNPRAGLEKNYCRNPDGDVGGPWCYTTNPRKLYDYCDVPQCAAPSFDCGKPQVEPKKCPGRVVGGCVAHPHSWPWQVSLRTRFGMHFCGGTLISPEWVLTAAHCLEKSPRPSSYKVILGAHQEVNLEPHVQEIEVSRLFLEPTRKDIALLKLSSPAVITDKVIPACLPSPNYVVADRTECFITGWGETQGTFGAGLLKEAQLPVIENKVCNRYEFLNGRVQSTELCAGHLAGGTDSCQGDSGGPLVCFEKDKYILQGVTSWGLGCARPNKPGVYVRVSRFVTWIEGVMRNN

B1: t-PA/K429Y, two-chain form (protein)
chain 1: SYQVICRDEKTQMIYQQHQSWLRPVLRSNRVEYCWCNSGRAQCHSVPVKSCSEPRCFNGGTCQQALYFSDFVCQCPEGFAGKCCEIDTRATCYEDQGISYRGTWSTAESGAECTNWNSSALAQKPYSGRRPDAIRLGLGNHNYCRNPDRDSKPWCYVFKAGKYSSEFCSTPACSEGNSDCYFGNGSAYRGTHSLTESGASCLPWNSMILIGKVYTAQNPSAQALGLGKHNYCRNPDGDAKPWCHVLKNRRLTWEYCDVPSCSTCGLRQYSQPQFR
chain 2: IKGGLFADIASHPWQAAIFAKHRRSPGERFLCGGILISSCWILSAAHCFQERFPPHHLTVILGRTYRVVPGEEEQKFEVEKYIVHKEFDDDTYDNDIALLQLKSDSSRCAQESSVVRTVCLPPADLQLPDWTECELSGYGKHEALSPFYSERLYEAHVRLYPSSRCTSQHLLNRTVTDNMLCAGDTRSGGPQANLHDACQGDSGGPLVCLNDGRMTLVGIISWGLGCGQKDVPGVYTKVTNYLDWIRDNMRP
B2: t-PA/R275E,K429Y, single-chain form (protein)
chain: SYQVICRDEKTQMIYQQHQSWLRPVLRSNRVEYCWCNSGRAQCHSVPVKSCSEPRCFNGGTCQQALYFSDFVCQCPEGFAGKCCEIDTRATCYEDQGISYRGTWSTAESGAECTNWNSSALAQKPYSGRRPDAIRLGLGNHNYCRNPDRDSKPWCYVFKAGKYSSEFCSTPACSEGNSDCYFGNGSAYRGTHSLTESGASCLPWNSMILIGKVYTAQNPSAQALGLGKHNYCRNPDGDAKPWCHVLKNRRLTWEYCDVPSCSTCGLRQYSQPQFEIKGGLFADIASHPWQAAIFAKHRRSPGERFLCGGILISSCWILSAAHCFQERFPPHHLTVILGRTYRVVPGEEEQKFEVEKYIVHKEFDDDTYDNDIALLQLKSDSSRCAQESSVVRTVCLPPADLQLPDWTECELSGYGKHEALSPFYSERLYEAHVRLYPSSRCTSQHLLNRTVTDNMLCAGDTRSGGPQANLHDACQGDSGGPLVCLNDGRMTLVGIISWGLGCGQKDVPGVYTKVTNYLDWIRDNMRP

What was measured:
[1] = target: stimulatory thirteen amino acid peptide P368
lys-plasminogen, P00747 = target: T1, lys-plasminogen, P00747
[2] = target: soluble fibrin monomers (DESAFIB)

Row | Protein | stimulation of plasminogen activation by co-factor (indirect chromogenic assay) [1] | Kcat of plasminogen activation in the absence of a cofactor (lys-plasminogen, P00747) [s⁻¹] | Kcat of plasminogen activation in the presence of fibrin (lys-plasminogen, P00747) [s⁻¹] | Kcat/Km of plasminogen activation in the absence of a cofactor (lys-plasminogen, P00747) [M⁻¹ s⁻¹] | Kcat/Km of plasminogen activation in the presence of fibrin (lys-plasminogen, P00747) [M⁻¹ s⁻¹] | Km of plasminogen activation in the absence of a cofactor (lys-plasminogen, P00747) [µM] | Km of plasminogen activation in the presence of fibrin (lys-plasminogen, P00747) [µM] | fold difference of activity toward plasminogen without co-factor, against two-chain t-PA (lys-plasminogen, P00747) | percent of the activity of two-chain t-PA toward plasminogen in the presence of fibrin (lys-plasminogen, P00747) | Fold stimulation of kcat/Km by fibrin [2] [fold] | fibrin selectivity factor (specific activity in the presence of fibrin over that in the presence of fibrinogen) [2] | stimulation of plasminogen activation by co-factor (indirect chromogenic assay) [2] | stimulation of plasminogen activation by co-factor (indirect chromogenic assay) (fibrinogen) | fold reduction of activity toward plasminogen without co-factor, against single chain t-PA/R275E (lys-plasminogen, P00747) | percent of the activity of single chain t-PA/R275E toward plasminogen in the presence of fibrin (lys-plasminogen, P00747)
1 | B1 | strongly stimulated | 0.18 | 0.08 | 13000 | 3e+06 | 14 | 0.03 | differed by a factor of only 1.2 | approximately 75% of the activity of two-chain t-PA | 230 | 1.5 for two-chain t-PA/K429Y | strongly stimulated | strongly stimulated | – | –
2 | B2 | virtually nonresponsive | 0.00046 | 0.1 | 78 | 2e+06 | 5.9 | 0.07 | – | – | 26000 | The fibrin selectivity factor for single chain t-PA/R275E,K429Y, however, is 146 | dramatically stimulated by fibrin monomers | virtually nonresponsive | reduced by a factor of 17 | approximately 40% of the activity of single chain t-PA/R275E
